In the supplement of paper PMC5998384:

Experiments:
HeLa Kyoto [1] = experiment: thermal stability score vs G1/S (z-score of summed log2 fold changes over temperatures); higher = more thermally stable than in G1/S
HeLa Kyoto [2] = experiment: melting temperature (median over replicates), in situ; higher = more thermally stable
HeLa Kyoto [3] = experiment: solubility change mitosis vs G1/S (difference of NP-40 vs SDS log2 ratios) (log2 ratio difference); higher = more soluble in mitosis
HeLa Kyoto [4] = experiment: solubility in G1/S (NP-40 vs SDS abundance) (log2 ratio); higher = more soluble; settings: cell cycle stage: G1/S
[5] = cell cycle stage: early G1 (4.5 h after nocodazole release)
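For melting temperature (median over replicates), in situ in this document: HeLa Kyoto cells synchronized by double thymidine or nocodazole block, proteins quantified by TMT10plex mass spectrometry, three independent biological replicates.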
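For solubility change mitosis vs G1/S (difference of NP-40 vs SDS log2 ratios) in this document: synchronized HeLa Kyoto cells (double thymidine block for G1/S, nocodazole release for mitosis), protein amounts in NP-40 versus SDS lysates quantified by mass spectrometry, three biological replicates.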
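For solubility in G1/S (NP-40 vs SDS abundance) in this document: HeLa Kyoto cells arrested at G1/S by double thymidine block, proteins quantified by TMT10plex mass spectrometry in mild NP-40 versus SDS extracts, three biological replicates.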
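For thermal stability score vs G1/S (z-score of summed log2 fold changes over temperatures) in this document: synchronized HeLa Kyoto cells, proteins quantified by TMT10plex mass spectrometry, three biological replicates, mitosis taken 0.5 h after nocodazole release, G1/S directly after double thymidine block.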

| Sequence | thermal stability score (HeLa Kyoto [1]; [5]) | thermal stability score (HeLa Kyoto [1]; cell cycle stage: mitosis) | melting temperature (HeLa Kyoto [2]; cell cycle stage: G1/S) [°C] | melting temperature (HeLa Kyoto [2]; cell cycle stage: mitosis) [°C] | solubility change mitosis (log2) (HeLa Kyoto [3]) | solubility in G1/S (log2) (HeLa Kyoto [4]) |
| --- | --- | --- | --- | --- | --- | --- |
| MKPAAREARLPPRSPGLRWALPLLLLLLRLGQILCAGGTPSPIPDPSVATVATGENGITQISSTAESFHKQNGTGTPQVETNTSEDGESSGANDSLRTPEQGSNGTDGASQKTPSSTGPSPVFDIKAVSISPTNVILTWKSNDTAASEYKYVVKHKMENEKTITVVHQPWCNITGLRPATSYVFSITPGIGNETWGDPRVIKVITEPIPVSDLRVALTGVRKAALSWSNGNGTASCRVLLESIGSHEELTQDSRLQVNISGLKPGVQYNINPYLLQSNKTKGDPLGTEGGLDASNTERSRAGSPTAPVHDESLVGPVDPSSGQQSRDTEVLLVGLEPGTRYNATVYSQAANGTEGQPQAIEFRTNAIQVFDVTAVNISATSLTLIWKVSDNESSSNYTYKIHVAGETDSSNLNVSEPRAVIPGLRSSTFYNITVCPVLGDIEGTPGFLQVHTPPVPVSDFRVTVVSTTEIGLAWSSHDAESFQMHITQEGAGNSRVEITTNQSIIIGGLFPGTKYCFEIVPKGPNGTEGASRTVCNRTVPSAVFDIHVVYVTTTEMWLDWKSPDGASEYVYHLVIESKHGSNHTSTYDKAITLQGLIPGTLYNITISPEVDHVWGDPNSTAQYTRPSNVSNIDVSTNTTAATLSWQNFDDASPTYSYCLLIEKAGNSSNATQVVTDIGITDATVTELIPGSSYTVEIFAQVGDGIKSLEPGRKSFCTDPASMASFDCEVVPKEPALVLKWTCPPGANAGFELEVSSGAWNNATHLESCSSENGTEYRTEVTYLNFSTSYNISITTVSCGKMAAPTRNTCTTGITDPPPPDGSPNITSVSHNSVKVKFSGFEASHGPIKAYAVILTTGEAGHPSADVLKYTYEDFKKGASDTYVTYLIRTEEKGRSQSLSEVLKYEIDVGNESTTLGYYNGKLEPLGSYRACVAGFTNITFHPQNKGLIDGAESYVSFSRYSDAVSLPQDPGVICGAVFGCIFGALVIVTVGGFIFWRKKRKDAKNNEVSFSQIKPKKSKLIRVENFEAYFKKQQADSNCGFAEEYEDLKLVGISQPKYAAELAENRGKNRYNNVLPYDISRVKLSVQTHSTDDYINANYMPGYHSKKDFIATQGPLPNTLKDFWRMVWEKNVYAIIMLTKCVEQGRTKCEEYWPSKQAQDYGDITVAMTSEIVLPEWTIRDFTVKNIQTSESHPLRQFHFTSWPDHGVPDTTDLLINFRYLVRDYMKQSPPESPILVHCSAGVGRTGTFIAIDRLIYQIENENTVDVYGIVYDLRMHRPLMVQTEDQYVFLNQCVLDIVRSQKDSKVDLIYQNTTAMTIYENLAPVTTFGKTNGYIA [PTPRJ] | 3.12 | -2.28 | 50.6 | 50 | 0.155 | -0.204 |
| MKPDETPMFDPSLLKEVDWSQNTATFSPAISPTHPGEGLVLRPLCTADLNRGFFKVLGQLTETGVVSPEQFMKSFEHMKKSGDYYVTVVEDVTLGQIVATATLIIEHKFIHSCAKRGRVEDVVVSDECRGKQLGKLLLSTLTLLSKKLNCYKITLECLPQNVGFYKKFGYTVSEENYMCRRFLK [GNPNAT1] | -0.0383 | -1.14 | 56.2 | 57.5 | -0.0779 | 0.222 |
| MKPGATGESDLAEVLPQHKFDSKSLEAYLNQHLSGFGAEREATLTIAQYRAGKSNPTFYLQKGFQTYVLRKKPPGSLLPKAHQIDREFKVQKALFSIGFPVPKPILYCSDTSVIGTEFYVMEHVQGRIFRDLTIPGLSPAERSAIYVATVETLAQLHSLNIQSLQLEGYGIGAGYCKRQVSTWTKQYQAAAHQDIPAMQQLSEWLMKNLPDNDNEENLIHGDFRLDNIVFHPKECRVIAVLDWELSTIGHPLSDLAHFSLFYFWPRTVPMINQGSYSENSGIPSMEELISIYCRCRGINSILPNWNFFLALSYFKMAGIAQGVYSRYLLGNNSSEDSFLFANIVQPLAETGLQLSKRTFSTVLPQIDTTGQLFVQTRKGQEVLIKVKHFMKQHILPAEKEVTEFYVQNENSVDKWGKPLVIDKLKEMAKVEGLWNLFLPAVSGLSHVDYALIAEETGKCFFAPDVFNCQAPDTGNMEVLHLYGSEEQKKQWLEPLLQGNITSCFCMTEPDVASSDATNIECSIQRDEDSYVINGKKWWSSGAGNPKCKIAIVLGRTQNTSLSRHKQHSMILVPMNTPGVKIIRPLSVFGYTDNFHGGHFEIHFNQVRVPATNLILGEGRGFEISQGRLGPGRIHHCMRTVGLAERALQIMCERATQRIAFKKKLYAHEVVAHWIAESRIAIEKIRLLTLKAAHSMDTLGSAGAKKEIAMIKVAAPRAVSKIVDWAIQVCGGAGVSQDYPLANMYAITRVLRLADGPDEVHLSAIATMELRDQAKRLTAKI [ACAD11] | 0.241 | -0.505 | 53.9 | 52.9 | -0.0749 | -0.0959 |
| MKPGFSPRGGGFGGRGGFGDRGGRGGRGGFGGGRGRGGGFRGRGRGGGGGGGGGGGGGRGGGGFHSGGNRGRGRGGKRGNQSGKNVMVEPHRHEGVFICRGKEDALVTKNLVPGESVYGEKRVSISEGDDKIEYRAWNPFRSKLAAAILGGVDQIHIKPGAKVLYLGAASGTTVSHVSDIVGPDGLVYAVEFSHRSGRDLINLAKKRTNIIPVIEDARHPHKYRMLIAMVDVIFADVAQPDQTRIVALNAHTFLRNGGHFVISIKANCIDSTASAEAVFASEVKKMQQENMKPQEQLTLEPYERDHAVVVGVYRPPPKVKN [FBL] | -1.06 | -3.39 | 52.9 | 51.5 | 1.49 | -1.97 |
| MKQDASRNAAYTVDCEDYVHVVEFNPFENGDSGNLIAYGGNNYVVIGTCTFQEEEADVEGIQYKTLRTFHHGVRVDGIAWSPETRLDSLPPVIKFCTSAADMKIRLFTSDLQDKNEYKVLEGHTDFINGLVFDPKEGQEIASVSDDHTCRIWNLEGVQTAHFVLHSPGMSVCWHPEETFKLMVAEKNGTIRFYDLLAQQAILSLESEQVPLMSAHWCLKNTFKVGAVAGNDWLIWDITRSSYPQNKRPVHMDRACLFRWSTISENLFATTGYPGKMASQFQIHHLGHPQPILMGSVAVGSGLSWHRTLPLCVIGGDHKLLFWVTEV [NUP37] | -3.41 | -4.8 | 53.3 | 51 | 0.135 | -0.294 |
| MKQLPVLEPGDKPRKATWYTLTVPGDSPCARVGHSCSYLPPVGNAKRGKVFIVGGANPNRSFSDVHTMDLGKHQWDLDTCKGLLPRYEHASFIPSCTPDRIWVFGGANQSGNRNCLQVLNPETRTWTTPEVTSPPPSPRTFHTSSAAIGNQLYVFGGGERGAQPVQDTKLHVFDANTLTWSQPETLGNPPSPRHGHVMVAAGTKLFIHGGLAGDRFYDDLHCIDISDMKWQKLNPTGAAPAGCAAHSAVAMGKHVYIFGGMTPAGALDTMYQYHTEEQHWTLLKFDTLLPPGRLDHSMCIIPWPVTCASEKEDSNSLTLNHEAEKEDSADKVMSHSGDSHEESQTATLLCLVFGGMNTEGEIYDDCIVTVVD [RABEPK] | -1.33 | -1.94 | 56.5 | 56 | -0.084 | 0.201 |
| MKRQGASSERKRARIPSGKAGAANGFLMEVCVDSVESAVNAERGGADRIELCSGLSEGGTTPSMGVLQVVKQSVQIPVFVMIRPRGGDFLYSDREIEVMKADIRLAKLYGADGLVFGALTEDGHIDKELCMSLMAICRPLPVTFHRAFDMVHDPMAALETLLTLGFERVLTSGCDSSALEGLPLIKRLIEQAKGRIVVMPGGGITDRNLQRILEGSGATEFHCSARSTRDSGMKFRNSSVAMGASLSCSEYSLKVTDVTKVRTLNAIAKNILV [CUTC] | -0.146 | -0.357 | 54.4 | 54.1 | -0.0574 | -0.00165 |
| MKRRTDPECTAPIKKQKKRVAELALSLSSTSDDEPPSSVSHGAKASTTSLSGSDSETEGKQHSSDSFDDAFKADSLVEGTSSRYSMYNSVSQKLMAKMGFREGEGLGKYSQGRKDIVEASSQKGRRGLGLTLRGFDQELNVDWRDEPEPSACEQVSWFPECTTEIPDTQEMSDWMVVGKRKMIIEDETEFCGEELLHSVLQCKSVFDVLDGEEMRRARTRANPYEMIRGVFFLNRAAMKMANMDFVFDRMFTNPRDSYGKPLVKDREAELLYFADVCAGPGGFSEYVLWRKKWHAKGFGMTLKGPNDFKLEDFYSASSELFEPYYGEGGIDGDGDITRPENISAFRNFVLDNTDRKGVHFLMADGGFSVEGQENLQEILSKQLLLCQFLMALSIVRTGGHFICKTFDLFTPFSVGLVYLLYCCFERVCLFKPITSRPANSERYVVCKGLKVGIDDVRDYLFAVNIKLNQLRNTDSDVNLVVPLEVIKGDHEFTDYMIRSNESHCSLQIKALAKIHAFVQDTTLSEPRQAEIRKECLRLWGIPDQARVAPSSSDPKSKFFELIQGTEIDIFSYKPTLLTSKTLEKIRPVFDYRCMVSGSEQKFLIGLGKSQIYTWDGRQSDRWIKLDLKTELPRDTLLSVEIVHELKGEGKAQRKISAIHILDVLVLNGTDVREQHFNQRIQLAEKFVKAVSKPSRPDMNPIRVKEVYRLEEMEKIFVRLEMKIIKGSSGTPKLSYTGRDDRHFVPMGLYIVRTVNEPWTMGFSKSFKKKFFYNKKTKDSTFDLPADSIAPFHICYYGRLFWEWGDGIRVHDSQKPQDQDKLSKEDVLSFIQMHRA [CMTR1] | 0.699 | 1.05 | 49.7 | 51 | -0.0832 | -0.186 |
| MKSSVAQIKPSSGHDRRENLNSYQRNSSPEDRYEEQERSPRDRDYFDYSRSDYEHSRRGRSYDSSMESRNRDREKRRERERDTDRKRSRKSPSPGRRNPETSVTQSSSAQDEPATKKKKDELDPLLTRTGGAYIPPAKLRMMQEQITDKNSLAYQRMSWEALKKSINGLINKVNISNISIIIQELLQENIVRGRGLLSRSVLQAQSASPIFTHVYAALVAIINSKFPQIGELILKRLILNFRKGYRRNDKQLCLTASKFVAHLINQNVAHEVLCLEMLTLLLERPTDDSVEVAIGFLKECGLKLTQVSPRGINAIFERLRNILHESEIDKRVQYMIEVMFAVRKDGFKDHPIILEGLDLVEEDDQFTHMLPLEDDYNPEDVLNVFKMDPNFMENEEKYKAIKKEILDEGDTDSNTDQDAGSSEEDEEEEEEEGEEDEEGQKVTIHDKTEINLVSFRRTIYLAIQSSLDFEECAHKLLKMEFPESQTKELCNMILDCCAQQRTYEKFFGLLAGRFCMLKKEYMESFEGIFKEQYDTIHRLETNKLRNVAKMFAHLLYTDSLPWSVLECIKLSEETTTSSSRIFVKIFFQELCEYMGLPKLNARLKDETLQPFFEGLLPRDNPRNTRFAINFFTSIGLGGLTDELREHLKNTPKVIVAQKPDVEQNKSSPSSSSSASSSSESDSSDSDSDSSDSSSESSSEESDSSSISSHSSASANDVRKKGHGKTRSKEVDKLIRNQQTNDRKQKERRQEHGHQETRTERERRSEKHRDQNSSGSNWRDPITKYTSDKDVPSERNNYSRVANDRDQEMHIDLENKHGDPKKKRGERRNSFSENEKHTHRIKDSENFRRKDRSKSKEMNRKHSGSRSDEDRYQNGAERRWEKSSRYSEQSRESKKNQDRRREKSPAKQK [CWC22] | 1.24 | 2.43 | 46.1 | 49.3 | 0.227 | -0.707 |
